Assay [1] addresses HLA-A*02:01. In words: IEDB peptide-MHC binding, purified MHC/competitive/radioactivity; ≥ and ≤ were set here for values at or beyond the usual limits of such assays.
The target in assay [2] is HLA-B*08:01. The assay can be described thus: IEDB peptide-MHC binding, purified MHC/direct/fluorescence; filed as Kd, often an IC50 or EC50 that approximates it; ≥ and ≤ were set here for values at or beyond the usual limits of such assays.
In assay [3] the target is HLA-A*01:01. The assay is described as above.
Assay [4] concerns the target HLA-B*15:09. The assay is described as above.
The target in assay [5] is HLA-B*58:01. Described as above.
Assay [6] concerns the target HLA-A*02:01. The description is as above.
In assay [7] the target is HLA-B*07:02. The assay is described as above.
Assay [8] concerns the target HLA-B*44:02. Described as above.
Assay [9] has as its target HLA-B*40:01. The description is as above.
For assay [10], the target named is HLA-B*27:05. The description is as above.
Assay [11] addresses HLA-A*03:01. Described as above.
The target in assay [12] is HLA-A*24:02. Described as above.
The target of assay [13] is HLA-B*15:01. The description is as above.
Assay [14] deals with HLA-A*69:01. Described as above.
For assay [15], the target named is HLA-A*26:01. Described as above.
In assay [16] the target is HLA-A*31:01. The assay is described as above.
Assay [17] has as its target HLA-A*11:01. The assay is described as above.
Assay [18] has as its target HLA-B*35:01. The description is as above.
In assay [19] the target is HLA-C*12:03. Described as above.
For assay [20], the target named is HLA-C*03:03. Described as above.
The target of assay [21] is HLA-B*53:01. In words: IEDB peptide-MHC binding, purified MHC/competitive/fluorescence; ≥ and ≤ were set here for values at or beyond the usual limits of such assays. The conditions noted are these: source organism: Human herpesvirus 4 type 2.
Assay [22] concerns the target HLA-B*46:01. In words: IEDB peptide-MHC binding, purified MHC/direct/fluorescence; filed as Kd, often an IC50 or EC50 that approximates it; ≥ and ≤ were set here for values at or beyond the usual limits of such assays.
Assay [23] has as its target HLA-A*29:02. The assay can be described thus: IEDB peptide-MHC binding, purified MHC/competitive/radioactivity; filed as Kd, often an IC50 or EC50 that approximates it; ≥ and ≤ were set here for values at or beyond the usual limits of such assays. The conditions noted are these: source organism: Lassa virus Josiah.
Assay [24] has as its target HLA-A*23:01. The description is as above. The conditions noted are these: source organism: Lassa virus Josiah.
Assay [25] has as its target HLA-A*24:02. Described as above. The conditions noted are these: source organism: Lassa virus Josiah.
Assay [26] has as its target HLA-C*15:02. The assay can be described thus: IEDB peptide-MHC binding, purified MHC/direct/fluorescence; filed as Kd, often an IC50 or EC50 that approximates it; ≥ and ≤ were set here for values at or beyond the usual limits of such assays. The conditions noted are these: source organism: Mammarenavirus choriomeningitidis.
In assay [27] the target is HLA-B*39:01. The assay is described as above. The conditions noted are these: source organism: Yersinia enterocolitica subsp. enterocolitica 8081.
For assay [28], the target named is HLA-B*48:01. The description is as above. The conditions noted are these: source organism: Orthohantavirus sinnombreense.
Assay [29] deals with HLA-B*57:01. The description is as above. The conditions noted are these: source organism: Orthohantavirus sinnombreense.
Assay [30] deals with HLA-B*18:01. Described as above. The conditions noted are these: source organism: Orthohantavirus sinnombreense.
Assay [31] addresses HLA-C*06:02. The assay is described as above. The conditions noted are these: source organism: Orthohantavirus sinnombreense.
Assay [32] concerns the target HLA-A*02:19. Described as above. The conditions noted are these: source organism: Limestone Canyon virus.
In assay [33] the target is HLA-B*15:17. In words: IEDB peptide-MHC binding, purified MHC/competitive/fluorescence; filed as Kd, often an IC50 or EC50 that approximates it; ≥ and ≤ were set here for values at or beyond the usual limits of such assays. The conditions noted are these: source organism: Orthohantavirus sinnombreense.
The target of assay [34] is HLA-A*26:01. The assay is described as above. The conditions noted are these: source organism: Orthohantavirus sinnombreense.
Setting [35] is: source organism: Hepatitis B virus.
[36] abbreviates: source organism: Influenza A virus (A/Turkey/MO/24093/99(H1N2)).
Setting [37] is: source organism: Influenza A virus(A/swine/Henan/5/2004(H9N2)).
The mark [38] stands for this setting: source organism: Influenza A virus (A/Puerto Rico/8/34/Mount Sinai(H1N1)).
The mark [39] stands for this setting: source organism: Escherichia coli O157:H7.
The mark [40] stands for this setting: source organism: Escherichia coli O6.
Setting [41] is: source organism: Vibrio cholerae.
[42] abbreviates: source organism: Vibrio cholerae RC385.
Where [43] appears, read: source organism: Mycobacterium tuberculosis variant bovis BCG str. Pasteur 1173P2.
Where [44] appears, read: source organism: Influenza A virus (A/Wisconsin/4755/1994(H1N1)).
[45] abbreviates: source organism: Mammarenavirus lassaense.
Where [46] appears, read: source organism: Orthohantavirus sinnombreense.

The IC50 is the concentration at which inhibition is half-maximal. In general, Kd refers to the concentration at which binding is half-saturated.

On to QLLWFHISCL, for which the concentration for half-maximal inhibition (IC50) in [1] (setting [35]) came to 393 nM.

Take RVASPTSGV: the IC50 in assay [1] (source organism: Homo sapiens) was found to be 731 nM.

As for GMQIRGFVY, the equilibrium dissociation constant (Kd) in assay [2] (setting [36]) is no less than 20 µM; in assay [3] (setting [36]) it was no less than 20 µM; in [4] (setting [37]), no less than 20 µM; in assay [5] (setting [36]), 4.75 µM; in assay [6] (setting [36]), no less than 20 µM; in [7] (setting [36]), no less than 20 µM. For the same sequence, the Kd in assay [8] (setting [36]) is no less than 20 µM; in assay [9] (setting [36]) it was no less than 20 µM; in assay [10] (setting [36]), no less than 20 µM; in [11] (setting [38]) it was 1.13 µM; in assay [12] (setting [36]), no less than 20 µM; in [13] (setting [38]), 260 nM. Also, the Kd in assay [14] (setting [36]) was no less than 20000 nM; in assay [15] (setting [37]), no less than 20 µM.

In the case of ILSTLPETTV, in assay [1] (setting [35]), the IC50 turned out to be 233 nM.

With AHGWSTFYL, the Kd is no less than 20 µM in assay [2] (setting [39]); no less than 20 µM in [16] (setting [39]); 3.15 µM in [3] (setting [40]); no less than 20 µM in assay [5] (setting [39]); no less than 20 µM in [6] (setting [39]); no less than 20 µM in assay [7] (setting [39]). The Kd in assay [8] (setting [39]) was no less than 20 µM; in assay [9] (setting [39]) it was no less than 20 µM; in [17] (setting [39]), no less than 20 µM; in [10] (setting [39]), no less than 20 µM; in assay [11] (setting [39]) it was no less than 20 µM; in assay [13] (setting [39]) it was no less than 20000 nM. In addition, the Kd in assay [18] (setting [40]) was 2100 nM; in assay [14] (setting [40]), 1540 nM; in assay [15] (setting [39]), no less than 20 µM.

Regarding GLRWHVRAF, the Kd in assay [16] (setting [41]) is no less than 20 µM; in assay [3] (setting [41]), no less than 20 µM; in [4] (setting [42]), no less than 20 µM; in assay [5] (setting [41]), no less than 20 µM; in assay [6] (setting [41]) it was no less than 20 µM; in assay [7] (setting [41]), 0.407 µM. Moreover, the Kd in assay [8] (setting [41]), in assay [9] (setting [41]), in assay [17] (setting [41]), in [10] (setting [41]), in [11] (setting [41]) and in assay [12] (setting [41]) was no less than 20 µM throughout. The Kd in [13] (setting [41]) is 79.4 nM; in assay [14] (setting [41]) it was no less than 20000 nM; in [15] (setting [42]) it was no less than 20 µM.

Turning to YVIEPAAGL, the Kd is 23 nM in [19] (setting [43]) and no more than 1 nM in assay [20] (setting [43]).

Turning to VATVNAVTV, the Kd in assay [19] (source organism: Leishmania major strain Friedlin) worked out at 18 nM.

The sequence QAYAAPQLF showed an IC50 in [21] of 70.7 nM.

As to YRYTYRCHR, the Kd in assay [2] (setting [44]) was no less than 20 µM; in [3] (setting [44]), no less than 20 µM; in assay [4] (source organism: Influenza A virus(A/swine/Shandong/fZC/2003(H9N2))) it was no less than 20 µM; in [5] (setting [44]), 0.587 µM; in [6] (setting [44]), no less than 20 µM; in [22] (setting [44]) it was no less than 20 µM. Further, the Kd in assay [7] (setting [44]) was no less than 20 µM; in [8] (setting [44]) it was no less than 20 µM; in assay [9] (setting [44]), no less than 20 µM; in [17] (setting [44]), no less than 20 µM; in [10] (setting [38]) it was 0.267 µM; in assay [11] (setting [44]) it was no less than 20 µM. In addition, the results for the Kd in assay [12] (setting [44]), in assay [13] (setting [44]) and in [14] (setting [44]) were no less than 20 µM, no less than 20000 nM and no less than 20000 nM, respectively.

As to FLPNDFFPSA, the 50% inhibitory concentration (IC50) in assay [1] (setting [35]) is 2.1 nM.

For the sequence YLISIFLHL, the Kd is 99.7 nM in assay [23]; 0.422 nM in assay [24]; no less than 67.7 µM in [25]; no less than 20 µM in assay [26]; 0.0809 µM in assay [6] (setting [45]); 802 nM in assay [14] (setting [45]).

With FHYQDPFPL, the Kd in assay [4] (source organism: Yersinia enterocolitica subsp. enterocolitica 8081) was no more than 0.001 µM; in [27], no more than 1 nM; in [20] (source organism: Yersinia pestis Nepal516), 1390 nM.

Regarding FRYKSRCYV, the Kd in [28], in assay [2] (setting [46]), in assay [3] (setting [46]), in [5] (setting [46]), in [22] (setting [46]) and in assay [7] (setting [46]) was no less than 20 µM each time. Moreover, the Kd was no less than 20 µM in assay [29]; no less than 20 µM in assay [8] (setting [46]); no less than 20 µM in [9] (setting [46]); no less than 20 µM in assay [11] (setting [46]); no less than 20 µM in assay [30]; 7 nM in assay [31]. Further, the Kd in assay [32] is no less than 20 µM; in assay [13] (setting [46]), no less than 20000 nM; in assay [33], no less than 20 µM; in [34], no less than 20 µM.

In turn, FPFWGCFVS came in with a Kd in assay [18] (source organism: Rickettsia prowazekii) of 2 nM.

Values taken from the Immune Epitope Database (IEDB).
